Measured values published in article PMC5641968 (2017).
Like-named read-outs stand apart in the source and are kept apart here.

Experiments:
Assay in all cases: biolayer interferometry
calmodulin [1] = molecular target: calmodulin (UniProt P0DP23)
calmodulin [2] = molecular target: calmodulin (UniProt P0DP23); remark: listed apart in the source
calmodulin [3] = molecular target: calmodulin (UniProt P0DP23); remark: listed apart in the source

B1: eNOS (protein)
chain: GNLKSVGQEPGPPCGLGLGLGLGLCGKQGPASPAPEPSRAPAPATPHAPDHSPAPNSPTLTRPPEGPKFPRVKNWELGSITYDTLCAQSQQDGPCTPRCCLGSLVLPRKLQTRPSPGPPPAEQLLSQARDFINQYYSSIKRSGSQAHEERLQEVEAEVASTGTYHLRESELVFGAKQAWRNAPRCVGRIQWGKLQVFDARDCSSAQEMFTYICNHIKYATNRGNLRSAITVFPQRAPGRGDFRIWNSQLVRYAGYRQQDGSVRGDPANVEITELCIQHGWTPGNGRFDVLPLLLQAPDEAPELFVLPPELVLEVPLEHPTLEWFAALGLRWYALPAVSNMLLEIGGLEFSAAPFSGWYMSTEIGTRNLCDPHRYNILEDVAVCMDLDTRTTSSLWKDKAAVEINLAVLHSFQLAKVTIVDHHAATVSFMKHLDNEQKARGGCPADWAWIVPPISGSLTPVFHQEMVNYILSPAFRYQPDPWKGSATKGAGITRKKTFKEVANAVKISASLMGTLMAKRVKATILYASETGRAQSYAQQLGRLFRKAFDPRVLCMDEYDVVSLEHEALVLVVTSTFGNGDPPENGESFAAALMEMSGPYNSSPRPEQHKSYKIRFNSVSCSDPLVSSWRRKRKESSNTDSAGALGTLRFCVFGLGSRAYPHFCAFARAVDTRLEELGGERLLQLGQGDELCGQEEAFRGWAKAAFQASCETFCVGEEAKAAAQDIFSPKRSWKRQRYRLSTQAEGLQLLPGLIHVHRRKMFQATVLSVENLQSSKSTRATILVRLDTAGQEGLQYQPGDHIGICPPNRPGLVEALLSRVEDPPPPTESVAVEQLEKGSPGGPPPSWVRDPRLPPCTLRQALTFFLDITSPPSPRLLRLLSTLAEEPSEQQELETLSQDPRRYEEWKWFRCPTLLEVLEQFPSVALPAPLLLTQLPLLQPRYYSVSSAPNAHPGEVHLTVAVLAYRTQDGLGPLHYGVCSTWLSQLKTGDPVPCFIRGAPSFRLPPDPYVPCILVGPGTGIAPFRGFWQERLHDIESKGLQPAPMTLVFGCRCSQLDHLYRDEVQDAQERGVFGRVLTAFSREPDSPKTYVQDILRTELAAEVHRVLCLERGHMFVCGDVTMATSVLQTVQRILATEGDMELDEAGDVIGVLRDQQRYHEDIFGLTLRTQEVTSRIRTQSFSLQERHLRGAVPWAFDPPGPDTPGP
modifications: Ca2+
Kd (calmodulin [1]): 0.645 nM
Kd (calmodulin [2]): 0.65 nM
Kd (calmodulin [3]): 0.5 nM
